For test [1], the target named is E. coli produced recombinant human tissue factor rhTF243, purified and lipidated (human) (UniProt P13726). As to the kind of experiment: cell-based or functional assay.
Test [2] addresses lettuce-produced recombinant human tissue factor, full length (263 aa), purified and lipidated (human) (UniProt P13726). The experiment in a line: cell-based or functional assay.

B1: Sunol-cH36 (antibody, from another filing, V domains shown)
VH: EIQLQQSGPELVKPGASVQVSCKTSGYSFTDYNVYWVRQSHGKSLEWIGYIDPYNGITIYDQNFKGKATLTVDKSSTTAFMHLNSLTSDDSAVYFCARDVTTALDFWGQGTTLTVSS
VL: DIQMTQSPASQSASLGESVTITCLASQTIDTWLAWYQQKPGKSPQLLIYAATNLADGVPSRFSGSGSGTKFSFKISSLQAEDFVNYYCQQVYSSPFTFGAGTKLELK
With B1, the figures for the clot time in prothrombin time (PT) assay, human plasma, 10 nM lipidated rhTF, at antibody concentration of 500 nM in test [1] and in test [2] were 48 s and 42 s, respectively. Further, the clot time in prothrombin time (PT) assay, human plasma, 10 nM lipidated rhTF, without antibody (0 nM) in test [1] and in test [2] was 25 s in each case.

The values above are taken from patent US20070292490A1.
